Key:
[1] = molecular target: HLA-B*07:02; assay: IEDB peptide-MHC binding, purified MHC/competitive/radioactivity; filed as Kd, often an IC50 or EC50 that approximates it; ≥ and ≤ were set here for values at or beyond the usual limits of such assays
[2] = molecular target: HLA-B*15:01; assay: as above
[3] = molecular target: HLA-A*29:02; assay: as above
[4] = molecular target: HLA-A*01:01; assay: as above
[5] = molecular target: HLA-A*24:02; assay: as above
[6] = molecular target: HLA-A*26:01; assay: as above
[7] = molecular target: HLA-A*23:01; assay: as above
[8] = molecular target: HLA-A*30:02; assay: as above
[9] = molecular target: HLA-B*44:03; assay: as above
[10] = molecular target: HLA-B*15:01; assay: IEDB peptide-MHC binding, purified MHC/direct/fluorescence; filed as Kd, often an IC50 or EC50 that approximates it; ≥ and ≤ were set here for values at or beyond the usual limits of such assays; settings: source organism: Brucella suis
[11] = molecular target: HLA-A*11:01; assay: as above; settings: source organism: Brucella suis
[12] = molecular target: HLA-A*31:01; assay: as above; settings: source organism: Brucella suis
[13] = molecular target: HLA-A*01:01; assay: as above; settings: source organism: Brucella suis
[14] = molecular target: HLA-A*26:01; assay: as above
[15] = molecular target: HLA-B*27:05; assay: as above; settings: source organism: Brucella suis
[16] = molecular target: HLA-A*69:01; assay: as above; settings: source organism: Brucella suis
[17] = molecular target: HLA-A*02:01; assay: as above; settings: source organism: Brucella suis
[18] = molecular target: HLA-B*58:01; assay: as above
[19] = molecular target: HLA-B*40:01; assay: as above
[20] = molecular target: HLA-B*44:02; assay: as above
[21] = molecular target: HLA-A*03:01; assay: as above; settings: source organism: Brucella suis
[22] = molecular target: HLA-B*08:01; assay: as above; settings: source organism: Brucella suis
[23] = molecular target: HLA-B*07:02; assay: as above; settings: source organism: Brucella suis
[24] = molecular target: HLA-A*24:02; assay: IEDB peptide-MHC binding, purified MHC/competitive/fluorescence; ≥ and ≤ were set here for values at or beyond the usual limits of such assays
[25] = molecular target: HLA-B*08:01; assay: IEDB peptide-MHC binding, purified MHC/competitive/radioactivity; filed as Kd, often an IC50 or EC50 that approximates it; ≥ and ≤ were set here for values at or beyond the usual limits of such assays
[26] = molecular target: HLA-A*02:01; assay: IEDB peptide-MHC binding, purified MHC/competitive/fluorescence; ≥ and ≤ were set here for values at or beyond the usual limits of such assays
[27] = molecular target: HLA-B*44:02; assay: IEDB peptide-MHC binding, purified MHC/competitive/radioactivity; filed as Kd, often an IC50 or EC50 that approximates it; ≥ and ≤ were set here for values at or beyond the usual limits of such assays
[28] = molecular target: HLA-B*18:01; assay: IEDB peptide-MHC binding, purified MHC/direct/fluorescence; filed as Kd, often an IC50 or EC50 that approximates it; ≥ and ≤ were set here for values at or beyond the usual limits of such assays
[29] = molecular target: HLA-B*57:01; assay: as above; settings: source organism: Bacillus cereus
[30] = molecular target: HLA-A*02:06; assay: IEDB peptide-MHC binding, purified MHC/competitive/radioactivity; filed as Kd, often an IC50 or EC50 that approximates it; ≥ and ≤ were set here for values at or beyond the usual limits of such assays; settings: source organism: Dengue virus 2 Jamaica/1409/1983
[31] = source organism: Dengue virus 4 Philippines/H241/1956
[32] = source organism: Dengue virus 1 Brazil/97-11/1997
[33] = source organism: Mammarenavirus brazilense
[34] = source organism: SARS coronavirus Tor2
[35] = source organism: Dengue virus 3 Martinique/1243/1999
[36] = source organism: Mammarenavirus guanaritoense
[37] = source organism: Vaccinia virus WR
[38] = source organism: Zaire ebolavirus
[39] = source organism: Dengue virus 2 Jamaica/1409/1983
[40] = source organism: Dengue virus 4 Dominica/814669/1981
[41] = source organism: Mammarenavirus juninense
[42] = source organism: Sudan ebolavirus
[43] = source organism: Lymphocytic choriomeningitis virus (strain Armstrong)
[44] = source organism: Vaccinia virus Copenhagen

APHHKILAKA showed a Kd [1, 31] of 407 nM.

AQKRTAAGIM showed a Kd [2, 32] of 25.6 nM.

In the case of DEALRGFLLY, the Kd [3, 33] is reported as at least 59100 nM, the Kd [4, 33] is reported as 14800 nM and the Kd [5, 33] is reported as at least 37500 nM. The Kd [6, 33] was at least 69700 nM, the Kd [7, 33] was 5860 nM and the Kd [8, 33] was at least 69700 nM.

DEEPMELDY gave a Kd [3, 34] of 1130 nM, a Kd [4, 34] of 2000 nM and a Kd [5, 34] of at least 77600 nM. For the same sequence, the Kd [6, 34] was at least 73600 nM, the Kd [7, 34] was at least 59000 nM and the Kd [8, 34] was at least 42000 nM.

Work on DENPYKTWAY yielded a Kd [9, 35] of 8.64 nM.

For DHEFVDEFY, the Kd [3, 34] was 1170 nM, the Kd [4, 34] was 262 nM and the Kd [5, 34] was at least 77600 nM. For the same sequence, the Kd [6, 34] was 13900 nM, the Kd [7, 34] was at least 66200 nM and the Kd [8, 34] was at least 22500 nM.

With DTVWEVQGY the Kd [3, 34] was 4250 nM, the Kd [4, 34] was 8020 nM and the Kd [5, 34] was at least 77600 nM. For the same sequence, the Kd [6, 34] was 1.64 nM, the Kd [7, 34] was at least 77800 nM and the Kd [8, 34] was 1320 nM.

Sequence DVIGNDRQE has a Kd [10] of at least 20 µM, a Kd [11] of at least 20 µM and a Kd [12] of at least 20 µM. The Kd [13] was at least 20 µM, the Kd ([14]; source organism: Brucella suis) was at least 20 µM and the Kd [15] was at least 20 µM. For the same sequence, the Kd [16] was at least 20 µM, the Kd [17] was at least 20 µM and the Kd ([18]; source organism: Brucella suis) was at least 20000 nM. It also gave a Kd ([19]; source organism: Brucella suis) of at least 20000 nM, a Kd ([20]; source organism: Brucella suis) of at least 20 µM and a Kd [21] of at least 20 µM. It also gave a Kd [22] of at least 20 µM and a Kd [23] of at least 20 µM.

EMVMCGGSLY showed a Kd [3, 34] of 13.9 nM, a Kd [4, 34] of 468 nM and a Kd [5, 34] of at least 70300 nM. For the same sequence, the Kd [6, 34] was 19.9 nM, the Kd [7, 34] was at least 70000 nM and the Kd [8, 34] was 38.1 nM.

With ERPVILSLP the IC50 ([24]; source organism: Variola virus) was 18.4 µM.

EYADVFHLY gave a Kd [3, 34] of 48.8 nM, a Kd [4, 34] of at least 26200 nM and a Kd [5, 34] of 784 nM. For the same sequence, the Kd [6, 34] was 27.7 nM, the Kd [7, 34] was 176 nM and the Kd [8, 34] was 10.8 nM.

Work on FFQDIPIFF yielded a Kd [3, 36] of 0.08 nM, a Kd [5, 36] of 159 nM and a Kd [7, 36] of 10.3 nM.

Work on FGVDGEAGF yielded a Kd ([14]; source organism: Mycobacterium tuberculosis variant bovis) of at least 20 µM.

FIYLLFASM was tested, and the Kd [2, 37] was 999 nM and the Kd [25, 37] was 1680 nM.

With FRFEVKKRD the IC50 [24, 38] was 19.5 µM and the IC50 [26, 38] was at least 733 µM.

GYLKPTTFML showed a Kd [3, 34] of 1020 nM, a Kd [4, 34] of at least 28400 nM and a Kd [5, 34] of 103 nM. It also gave a Kd [6, 34] of at least 69700 nM, a Kd [7, 34] of 33.6 nM and a Kd [8, 34] of 5130 nM.

IEEVMRSRW was tested, and the Kd [27, 32] was 178 nM and the Kd [9, 32] was 36.6 nM.

In the case of IESEKNETW, the Kd [27, 32] is reported as 87 nM and the Kd [9, 32] is reported as 279 nM.

For IQNSGGTSIF, the Kd [2, 35] was 3.01 nM.

IQTSGTTTIF showed a Kd [2, 32] of 5.3 nM.

Sequence IRWLGGILP has an IC50 [24, 37] of 48.1 µM and an IC50 [26, 37] of at least 156 µM.

KENGVDLSV gave a Kd ([28]; source organism: West Nile virus) of 5220 nM.

Work on KFLLIHQGM yielded an IC50 [24, 38] of 0.256 µM and an IC50 [26, 38] of at least 150 µM.

KPKGKVVDL showed a Kd [25, 31] of 124 nM and a Kd [1, 31] of 43.4 nM.

KQFKQDSKY was tested, and the Kd ([2]; source organism: Lymphocytic choriomeningitis virus (strain Armstrong) (clone 53b)) was 13 nM.

KVINLSELL gave a Kd [3, 36] of 11900 nM, a Kd [5, 36] of 17600 nM and a Kd [7, 36] of 426 nM.

LARVGRERL showed a Kd [1, 39] of 298 nM.

For LENVMWKQI, the Kd [27, 40] was 105 nM and the Kd [9, 40] was 157 nM.

LESGAVKYL was tested, and the IC50 [24, 38] was at least 128 µM and the IC50 [26, 38] was at least 222 µM.

LFMALVAFL was tested, and the Kd [5, 39] was 8200 nM.

Work on LGKCGSCVY yielded a Kd [2, 35] of 110 nM.

LGTIYGFIW was tested, and the Kd [29] was 521 nM and the Kd ([18]; source organism: Bacillus cereus) was 6.3 nM.

LLSRYDEHF showed a Kd [2, 37] of 54 nM.

LMCPDECPG was tested, and the Kd [2, 37] was 899 nM.

With LSHLSLGLI the Kd [3, 33] was 9100 nM, the Kd [5, 33] was at least 21000 nM and the Kd [7, 33] was 7760 nM.

For LSKSEFNTY, the Kd [2, 32] was 7.88 nM, the Kd [4, 32] was 2740 nM and the Kd [8, 32] was 11.1 nM.

LWTTLLSLTF showed a Kd [5, 32] of 14.3 nM and a Kd [7, 32] of 20.6 nM.

MLMLVNDRLL was tested, and the Kd [3, 41] was at least 20000 nM, the Kd [5, 41] was at least 70300 nM and the Kd [7, 41] was 11400 nM.

NEHKSTWHY was tested, and the Kd [27, 32] was 84.1 nM and the Kd [9, 32] was 173 nM.

Work on NEVHTWTEQ yielded a Kd [9, 32] of 6680 nM.

Sequence NITDKINQI has an IC50 [24, 42] of 5.96 µM and an IC50 [26, 42] of 43.7 µM.

In the case of QEGAMHTAL, the Kd ([28]; source organism: Dengue virus) is reported as 39.5 nM and the Kd ([20]; source organism: Dengue virus) is reported as 6.66 µM.

In the case of QHNAAGIAW, the IC50 [24, 42] is reported as 21.2 µM.

QKEGVFHTMW was tested, and the Kd [27, 35] was 181 nM and the Kd [9, 35] was 411 nM.

Work on QYLIIQNRTW yielded a Kd [3, 43] of 687 nM, a Kd [5, 43] of 693 nM and a Kd [7, 43] of 57.4 nM.

RFEVKKRDG was tested, and the IC50 [24, 38] was at least 81.1 µM and the IC50 [26, 38] was at least 568 µM.

RPMFAVGLL showed a Kd [1, 32] of 5.06 nM.

RPTPTGTVMD gave a Kd [1, 35] of 41.5 nM.

In the case of RSMPGTRRVM, the Kd [1, 35] is reported as 91.9 nM.

Sequence SARGLCAHI has a Kd [2, 37] of 1220 nM.

SFEEMYRHI was tested, and the IC50 [24, 38] was 6.11 µM.

With SGTETKITF the IC50 [24, 44] was 11.3 µM.

For SIILEFFLI, the Kd [30] was 1.59 nM and the Kd [5, 39] was 1250 nM.

SLIYLCTFM was tested, and the Kd [2, 37] was 4.45 nM.

Work on SMKYLMLLF yielded a Kd [2, 37] of 3.84 nM.

With SSQVKCCHY the Kd [2, 37] was 347 nM.

In the case of SYGEYQSYS, the IC50 [24, 38] is reported as 52.3 µM.

With TLGYCMIRW the IC50 [24, 37] was at least 105 µM.

Work on TSGKYFSTF yielded a Kd [2, 44] of 85.9 nM.

Sequence TTIRYQATG has an IC50 [24, 38] of 58.3 µM.

With VHSQGREAA the IC50 [24, 38] was 1.9 µM and the IC50 [26, 38] was 40.4 µM.

Sequence VLLDYGLHG has a Kd [2, 37] of at least 27500 nM.

With VPLQWIASA the Kd ([1]; source organism: Dengue virus 3 Sri Lanka/1266/2000) was 178 nM.

Sequence VRSETKQKF has an IC50 ([24]; source organism: Vaccinia virus) of 1.82 µM.

In the case of WQQVPFCSH, the Kd [2, 32] is reported as 102 nM.

Sequence WYAQIQPHW has a Kd [5, 39] of 24.3 nM and a Kd [7, 39] of 62.1 nM.

For YECETYKEL, the Kd ([28]; source organism: Amur virus) was 5.3 nM, the Kd ([19]; source organism: Amur virus) was 14.8 nM and the Kd ([20]; source organism: Amur virus) was at least 20 µM.

Work on YGANYFLQI yielded a Kd [2, 37] of 1760 nM.

YQVKTETTIL showed a Kd [2, 31] of 43.1 nM.
